Data reported in US20260167721A1 (ABLEXIS, published 2026).

Assays:
[1] = target: T1, recombinant human CD3 epsilon/delta heterodimer (human, UniProt P07766 23-126; P04234 22-105); assay: Octet BLI, mAb on FAB2G sensor, hCD3 E/D 200-50 nM; R^2 0.99
T1 construct: Recombinant protein in solution (200-50 nM) in the Octet assay; also called hCD3 E/D; human CD3E/D

[2] = target: T2, recombinant human CD3 epsilon/gamma heterodimer (human, UniProt P07766 23-126; P09693 23-116); assay: Octet BLI, mAb on FAB2G sensor, hCD3 E/G 200-50 nM; R^2 0.63
T2 construct: Recombinant protein in solution (200-50 nM) in the Octet assay; also called hCD3 E/G
T2 sequence (P07766 23-126, chain 1 of 2): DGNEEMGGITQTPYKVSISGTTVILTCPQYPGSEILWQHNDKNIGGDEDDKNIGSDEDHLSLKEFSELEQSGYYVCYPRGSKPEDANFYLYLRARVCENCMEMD
T2 sequence (P09693 23-116, chain 2 of 2): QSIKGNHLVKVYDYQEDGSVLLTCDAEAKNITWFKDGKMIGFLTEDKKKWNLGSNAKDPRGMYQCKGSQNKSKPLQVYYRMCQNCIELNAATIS
Protocol: (§1) Samples were evaluated by flow cytometry analysis against Jurkat and human Pan-T cells (FIG. 1B) as well as by Octet against recombinant human CD3 proteins to evaluate apparent affinities and binding off-rates (Table 6, infra).

[3] = target: T1, recombinant human CD3 epsilon/delta …; assay: Octet BLI, mAb on FAB2G sensor, hCD3 E/D 200-50 nM; R^2 0.97
Protocol: as §1

[4] = target: T2, recombinant human CD3 epsilon/gamma …; assay: Octet BLI, mAb on FAB2G sensor, hCD3 E/G 200-50 nM; R^2 0.91
Protocol: as §1

[5] = target: T1, recombinant human CD3 epsilon/delta …; assay: Octet BLI, mAb on FAB2G sensor, hCD3 E/D 200-50 nM; R^2 0.98;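 also: antibodies purified from hybridoma supernatants, measured by Octet binding to recombinant human CD3 protein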
Protocol: as §1

[6] = target: T2, recombinant human CD3 epsilon/gamma …; assay: Octet BLI, mAb on FAB2G sensor, hCD3 E/G 200-50 nM; R^2 0.79
Protocol: as §1

[7] = target: T3, human CD3 (TCR/CD3 complex) on the cell surface (human, UniProt P07766 23-207; P09693 23-182; P04234 22-171; P20963 22-164); assay: flow cytometry, Pan-T cells, 1 ug/mL
T3 construct: whole, on cells; also called CD3 on Pan-T cells; CD3 on Jurkat WT cells
T3 sequence (P07766 23-207, chain 1 of 4): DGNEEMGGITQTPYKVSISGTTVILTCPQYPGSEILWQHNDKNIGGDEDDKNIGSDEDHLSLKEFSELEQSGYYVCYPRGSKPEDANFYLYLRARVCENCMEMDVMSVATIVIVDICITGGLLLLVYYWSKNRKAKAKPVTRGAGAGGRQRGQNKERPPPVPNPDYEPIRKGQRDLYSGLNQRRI
T3 sequence (P09693 23-182, chain 2 of 4): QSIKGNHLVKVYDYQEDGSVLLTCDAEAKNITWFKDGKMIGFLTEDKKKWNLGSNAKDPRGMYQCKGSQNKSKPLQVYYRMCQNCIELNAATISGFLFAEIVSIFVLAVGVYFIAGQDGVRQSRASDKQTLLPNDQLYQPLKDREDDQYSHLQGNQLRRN
T3 sequence (P04234 22-171, chain 3 of 4): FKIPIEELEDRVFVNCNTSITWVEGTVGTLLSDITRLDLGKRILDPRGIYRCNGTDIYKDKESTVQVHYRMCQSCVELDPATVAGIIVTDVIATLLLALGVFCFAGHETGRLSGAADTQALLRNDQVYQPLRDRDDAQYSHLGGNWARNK
T3 sequence (P20963 22-164, chain 4 of 4): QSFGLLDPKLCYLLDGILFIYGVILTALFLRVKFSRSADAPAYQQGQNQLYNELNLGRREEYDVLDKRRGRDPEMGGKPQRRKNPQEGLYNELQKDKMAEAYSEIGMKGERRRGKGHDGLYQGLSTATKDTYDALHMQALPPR

[8] = target: T3, human CD3 (TCR/CD3 complex) on the cell …; assay: flow cytometry, Pan-T cells, 10 ug/mL
[9] = target: T3, human CD3 (TCR/CD3 complex) on the cell …; assay: flow cytometry, Jurkat WT cells, 1 ug/mL
[10] = target: T3, human CD3 (TCR/CD3 complex) on the cell …; assay: flow cytometry, Jurkat WT cells, 10 ug/mL
recombinant CD3 proteins [11] = target: T4, recombinant CD3 proteins (UniProt P07766 23-126); assay: Octet BLI, recombinant CD3; Full R^2 0.995
T4 construct: elsewhere it uses human CD3 E/D and E/G heterodimers
T4 sequence (P07766 23-126): as the sequence (P07766 23-126, chain 1 of 2) above

recombinant CD3 proteins [12] = target: T4, recombinant CD3 proteins; assay: Octet BLI, recombinant CD3; Full R^2 0.9943
[13] = target: T3, human CD3 (TCR/CD3 complex) on the cell …; assay: flow cytometry, gMFI Jurkat WT over Jurkat TCRb KO, 1 ug/mL
[14] = target: T3, human CD3 (TCR/CD3 complex) on the cell …; assay: flow cytometry, gMFI Jurkat WT over Jurkat TCRb KO, 10 ug/mL
recombinant CD3 proteins [15] = target: T4, recombinant CD3 proteins; assay: Octet BLI, recombinant CD3; Full R^2 0*
recombinant CD3 proteins [16] = target: T4, recombinant CD3 proteins; assay: Octet BLI, recombinant CD3; Full R^2 0.000*
[17] = target: T1, recombinant human CD3 epsilon/delta …; assay: Octet BLI, mAb on FAB2G sensor, hCD3 E/D 200-50 nM; R^2 0.60
Protocol: as §1

[18] = target: T2, recombinant human CD3 epsilon/gamma …; assay: Octet BLI, mAb on FAB2G sensor, hCD3 E/G 200-50 nM; R^2 0.49
Protocol: as §1

T1 sequence (P07766 23-126, stated change not applied, chain 1 of 2): as the sequence (P07766 23-126, chain 1 of 2) above
T1 sequence (P04234 22-105, stated change not applied, chain 2 of 2): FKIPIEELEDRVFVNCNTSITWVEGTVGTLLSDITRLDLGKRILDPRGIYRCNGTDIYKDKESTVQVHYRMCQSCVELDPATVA

B1: ABL-CD3-16 (antibody, V domains shown)
VH: EVQLVESGGGLVQPGGSLRLSCAASGFTFSRYWMTWVRQAPGKGLEWVANIKEDGSEKYCVDSVKGRFTISRDNAKNSLYLQLNSLRAEDTAVYYCARERRTGYFDYWGQGTLVTVSS
VL: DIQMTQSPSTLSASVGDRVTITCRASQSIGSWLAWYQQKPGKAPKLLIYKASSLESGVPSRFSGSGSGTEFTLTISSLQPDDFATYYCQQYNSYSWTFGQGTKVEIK
notes: Chimeric hybridoma mAb: human V, CH1, upper hinge; mouse middle hinge, CH2, CH3
Kd [1]: 29.5 nM
Response [1]: 0.19
koff [1]: 0.00153 s⁻¹
kon [1]: 51900 M⁻¹ s⁻¹
Kd [2]: < 1 pM
koff [2]: < 1e-07 s⁻¹
kon [2]: 36200 M⁻¹ s⁻¹

B2: ABL-CD3-17 (antibody, V domains shown)
VH: EVQLVESGGGLVQPGGSLRLSCAASGFTFSRYSINWVRQAPGKGLEWVSYISSSSSTIYYADSVKGRFTISRDNAKNSLYLQMNSLRDEDTAVYYCARERWELLYFDYWGQGTLVTVSS
VL: NFMLTQPHSVSESPGKTVTISCTRSSGSIASKYVQWYQQRPGSSPTTVIYEDNQRPSGVPDRFSGSIDSSSNSASLTISGLKTEDEADYYCQSYDSNNRVFGGGTKLTVL
notes: as for B1
Kd [3]: 103 nM
Response [3]: 0.22
koff [3]: 0.0318 s⁻¹
kon [3]: 309000 M⁻¹ s⁻¹
Kd [4]: 210 nM
koff [4]: 0.132 s⁻¹
kon [4]: 627000 M⁻¹ s⁻¹

B3: ABL-CD3-21 (antibody, V domains shown)
VH: EVQLVESGGGLVKPGGSLRLSCAASGFTFSSYSMNWVRQAPGKGLEWVSSISRSSSYIYYADSVKGRFTLSRDNAKNSLYLQMNSLRGEDTAIYYCGRDGKGAIFLDYWGQGTLVTVSS
VL: SYELTQPPSVSVSPGQTARITCSGDALPKKYAYWYQQKSGQAPVLVIYEDSKRPSGIPERFSGSSSGTMATLTISGAQVEDEADYYCYSTHSSGNHRVFGGGTKLTVL
notes: as for B1
Kd [5]: 95.3 nM
Response [5]: 0.27
koff [5]: 0.036 s⁻¹
kon [5]: 378000 M⁻¹ s⁻¹
Kd [6]: 130 nM
koff [6]: 0.0994 s⁻¹
kon [6]: 766000 M⁻¹ s⁻¹

B4: Control Humanized anti-CD3 (high affinity) scFv-Fc knob/TM (bispecific antibody)
scFv: EVQLVESGGGLVQPGGSLRLSCAASGFTFSTYAMNWVRQAPGKGLEWVGRIRSKYNNYATYYADSVKGRFTISRDDSKNTLYLQMNSLRAEDTAVYYCVRHGNFGDSYVSWFAYWGQGTLVTVSSGKPGSGKPGSGKPGSGKPGSQAVVTQEPSLTVSPGGTVTLTCGSSTGAVTTSNYANWVQQKPGKSPRGLIGGTNKRAPGVPARFSGSLLGGKAALTISGAQPEDEADYYCALWYSNHWVFGGGTKLTVLGGGGSDKTHTCPPCPAPEFEGGPSVFLFPPKPKDTLMISRTPEVTCVVVDVSHEDPEVKFNWYVDGVEVHNAKTKPREEQYNSTYRVVSVLTVLHQDWLNGKEYKCKVSNKALPASIEKTISKAKGQPREPQVYTLPPCREEMTKNQVSLWCLVKGFYPSDIAVEWESNGQPENNYKTTPPVLDSDGSFFLYSKLTVDKSRWQQGNVFSCSVMHEALHNHYTQKSLSLSPGK
heavy: EVQLVQSGAEVKKPGSSVKVSCKASGYTITDSNIHWVRQAPGQSLEWIGYIYPYNGGTDYNQKFKNRATLTVDNPTNTAYMELSSLRSEDTAFYYCVNGNPWLAYWGQGTLVTVSSASTKGPSVFPLAPSSKSTSGGTAALGCLVKDYFPEPVTVSWNSGALTSGVHTFPAVLQSSGLYSLSSVVTVPSSSLGTQTYICNVNHKPSNTKVDKRVEPKSCDKTHTCPPCPAPEFEGGPSVFLFPPKPKDTLMISRTPEVTCVVVDVSHEDPEVKFNWYVDGVEVHNAKTKPREEQYNSTYRVVSVLTVLHQDWLNGKEYKCKVSNKALPASIEKTISKAKGQPREPQVCTLPPSREEMTKNQVSLSCAVKGFYPSDIAVEWESNGQPENNYKTTPPVLDSDGSFFLVSKLTVDKSRWQQGNVFSCSVMHEALHNRFTQKSLSLSPGK
light: DIQLTQSPSTLSASVGDRVTITCRASESLDNYGIRFLTWFQQKPGKAPKLLMYAASNQGSGVPSRFSGSGSGTEFTLTISSLQPDDFATYYCQQTKEVPWSFGQGTKVEVKRTVAAPSVFIFPPSDEQLKSGTASVVCLLNNFYPREAKVQWKVDNALQSGNSQESVTEQDSKDSTYSLSSTLTLSKADYEKHKVYACEVTHQGLSSPVTKSFNRGEC
% Positive [7]: 99.4%
gMFI [7]: 66400 gMFI
% Positive [8]: 99.4%
gMFI [8]: 178000 gMFI
gMFI [9]: 15500 gMFI
gMFI [10]: 21600 gMFI
Kd (recombinant CD3 proteins [11]): 44.9 nM
koff (recombinant CD3 proteins [11]): 0.0111 s⁻¹
kon (recombinant CD3 proteins [11]): 248000 M⁻¹ s⁻¹
Kd (recombinant CD3 proteins [12]): 39.5 nM
koff (recombinant CD3 proteins [12]): 0.0102 s⁻¹
kon (recombinant CD3 proteins [12]): 259000 M⁻¹ s⁻¹
Jurkat WT/KO (Fold) [13]: 4 fold
Jurkat WT/KO (Fold) [14]: 5.2 fold

B5: Control Humanized anti-CD3 (low affinity) scFv-Fc knob/TM (bispecific antibody)
scFv: EVQLVESGGGLVQPGGSLRLSCAASGFTFSTYAMNWVRQAPGKGLEWVGRIRSKYNNYATYYADSVKGRFTISRDDSKNTLYLQMNSLRAEDTAVYYCVRHGNFGDSYVSWFDYWGQGTLVTVSSGKPGSGKPGSGKPGSGKPGSQAVVTQEPSLTVSPGGTVTLTCGSSTGAVTTSNYANWVQQKPGKSPRGLIGGTNKRAPGVPARFSGSLLGGKAALTISGAQPEDEADYYCALWYSNHWVFGGGTKLTVLGGGGSDKTHTCPPCPAPEFEGGPSVFLFPPKPKDTLMISRTPEVTCVVVDVSHEDPEVKFNWYVDGVEVHNAKTKPREEQYNSTYRVVSVLTVLHQDWLNGKEYKCKVSNKALPASIEKTISKAKGQPREPQVYTLPPCREEMTKNQVSLWCLVKGFYPSDIAVEWESNGQPENNYKTTPPVLDSDGSFFLYSKLTVDKSRWQQGNVFSCSVMHEALHNHYTQKSLSLSPGK
heavy: EVQLVQSGAEVKKPGSSVKVSCKASGYTITDSNIHWVRQAPGQSLEWIGYIYPYNGGTDYNQKFKNRATLTVDNPTNTAYMELSSLRSEDTAFYYCVNGNPWLAYWGQGTLVTVSSASTKGPSVFPLAPSSKSTSGGTAALGCLVKDYFPEPVTVSWNSGALTSGVHTFPAVLQSSGLYSLSSVVTVPSSSLGTQTYICNVNHKPSNTKVDKRVEPKSCDKTHTCPPCPAPEFEGGPSVFLFPPKPKDTLMISRTPEVTCVVVDVSHEDPEVKFNWYVDGVEVHNAKTKPREEQYNSTYRVVSVLTVLHQDWLNGKEYKCKVSNKALPASIEKTISKAKGQPREPQVCTLPPSREEMTKNQVSLSCAVKGFYPSDIAVEWESNGQPENNYKTTPPVLDSDGSFFLVSKLTVDKSRWQQGNVFSCSVMHEALHNRFTQKSLSLSPGK
light: DIQLTQSPSTLSASVGDRVTITCRASESLDNYGIRFLTWFQQKPGKAPKLLMYAASNQGSGVPSRFSGSGSGTEFTLTISSLQPDDFATYYCQQTKEVPWSFGQGTKVEVKRTVAAPSVFIFPPSDEQLKSGTASVVCLLNNFYPREAKVQWKVDNALQSGNSQESVTEQDSKDSTYSLSSTLTLSKADYEKHKVYACEVTHQGLSSPVTKSFNRGEC
% Positive [7]: 1.5%
gMFI [7]: 2070 gMFI
% Positive [8]: 7.9%
gMFI [8]: 3410 gMFI
Kd (recombinant CD3 proteins [15]): 4.27 nM
koff (recombinant CD3 proteins [15]): 5.33e-05 s⁻¹
kon (recombinant CD3 proteins [15]): 12500 M⁻¹ s⁻¹
gMFI [9]: 1920 gMFI
gMFI [10]: 2090 gMFI
Kd (recombinant CD3 proteins [16]): 4.38 nM
koff (recombinant CD3 proteins [16]): 5.48e-05 s⁻¹
kon (recombinant CD3 proteins [16]): 12500 M⁻¹ s⁻¹
Jurkat WT/KO (Fold) [13]: 0.9 fold
Jurkat WT/KO (Fold) [14]: 1 fold

B6: ABL-CD3-18 (antibody, V domains shown)
VH: EVQLVESGEGLVQPGGSLRLSCAASGFTFSSYAMHWVRQAPGKGLEYVSAISSNGGRTYYADSVKGRFTISRDNSKNTLYLQMGSLRAEDMAVYYCARGGSLDYWGQGTLVTVSS
VL: DIVMTQTPLSSPVTPGQPASISCRSSQSLVHSDGNTYLNWLQQRPGQPPRLLIYKISDRFSGVPDRFSGSGAGTDFTLKIGRVEAEDVGVYYCMQSTQFPITFGQGTRLEIK
notes: as for B1
Kd [17]: < 1 pM
koff [17]: < 1e-07 s⁻¹
kon [17]: 29100 M⁻¹ s⁻¹
Kd [18]: < 1 pM
koff [18]: < 1e-07 s⁻¹
kon [18]: 27000 M⁻¹ s⁻¹
